This note sets out measurements from patent publication US20220380471A1 (US Dept. of Health and Human Services, published 2022).

Assay [1] addresses T1, recombinant human B7H3-Fc protein (human, UniProt Q5ZPR3 29-466, limits assumed).
T1 construct: 154 kDa non-reduced, 77 kDa reduced; also called hB7H3-Fc; not shown: Fc part
T1 sequence (looked up): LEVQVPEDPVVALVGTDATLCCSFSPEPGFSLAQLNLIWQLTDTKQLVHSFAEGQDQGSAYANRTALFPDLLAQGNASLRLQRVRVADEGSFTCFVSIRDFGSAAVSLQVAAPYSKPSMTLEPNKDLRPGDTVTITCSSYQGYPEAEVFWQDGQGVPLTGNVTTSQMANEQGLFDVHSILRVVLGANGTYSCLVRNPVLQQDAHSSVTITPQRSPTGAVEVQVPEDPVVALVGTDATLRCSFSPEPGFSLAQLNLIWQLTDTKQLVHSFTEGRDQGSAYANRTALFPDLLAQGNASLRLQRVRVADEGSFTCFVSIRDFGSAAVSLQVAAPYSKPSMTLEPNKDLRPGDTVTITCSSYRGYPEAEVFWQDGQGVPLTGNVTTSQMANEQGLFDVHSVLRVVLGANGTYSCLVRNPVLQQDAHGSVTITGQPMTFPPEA
Description: ELISA, purified VHH. A digest of the protocol:
(§1)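 Camel VHH nanobodies were isolated by phage panning on recombinant B7H3-Fc. After purification, their binding to immobilised B7H3 fusion proteins and non-B7H3 recombinant proteins was read out by ELISA and recorded as signal.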
(In general: An ELISA detects its analyte on a solid surface through an enzyme-linked reagent.)

Assay [2] deals with Non-relevant antigen. Description: ELISA, purified VHH. A digest of the protocol:
as §1

Assay [3] addresses T2, rat B7H3-His (rat, UniProt Q7TPB4 29-244, limits assumed).
T2 construct: not shown: His tag
T2 sequence (looked up): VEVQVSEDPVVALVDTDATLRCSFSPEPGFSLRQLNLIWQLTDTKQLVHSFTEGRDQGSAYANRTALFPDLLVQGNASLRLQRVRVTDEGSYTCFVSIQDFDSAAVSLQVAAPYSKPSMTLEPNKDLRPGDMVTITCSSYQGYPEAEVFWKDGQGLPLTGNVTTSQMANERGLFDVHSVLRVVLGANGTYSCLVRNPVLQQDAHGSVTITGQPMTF
Description: ELISA, purified VHH. An outline of the steps:
as §1

The target in assay [4] is T3, monkey B7H3-His (monkey).
T3 chain: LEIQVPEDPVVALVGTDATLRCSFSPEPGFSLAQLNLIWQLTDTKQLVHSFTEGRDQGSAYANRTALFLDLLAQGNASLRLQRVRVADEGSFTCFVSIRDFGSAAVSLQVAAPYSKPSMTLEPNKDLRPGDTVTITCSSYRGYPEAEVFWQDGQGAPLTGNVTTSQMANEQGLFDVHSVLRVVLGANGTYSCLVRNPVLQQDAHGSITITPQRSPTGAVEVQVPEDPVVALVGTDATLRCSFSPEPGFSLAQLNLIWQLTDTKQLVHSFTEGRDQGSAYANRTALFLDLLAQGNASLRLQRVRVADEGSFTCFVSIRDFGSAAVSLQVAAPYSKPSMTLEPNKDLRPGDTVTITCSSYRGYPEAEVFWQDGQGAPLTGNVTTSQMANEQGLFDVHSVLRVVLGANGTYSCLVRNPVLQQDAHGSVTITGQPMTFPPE
Description: ELISA, purified VHH. A digest of the protocol:
as §1

The target of another assay is T4, hB7H3-His (human, UniProt Q5ZPR3 29-461, limits assumed).
T4 construct: not shown: His tag
T4 sequence (looked up): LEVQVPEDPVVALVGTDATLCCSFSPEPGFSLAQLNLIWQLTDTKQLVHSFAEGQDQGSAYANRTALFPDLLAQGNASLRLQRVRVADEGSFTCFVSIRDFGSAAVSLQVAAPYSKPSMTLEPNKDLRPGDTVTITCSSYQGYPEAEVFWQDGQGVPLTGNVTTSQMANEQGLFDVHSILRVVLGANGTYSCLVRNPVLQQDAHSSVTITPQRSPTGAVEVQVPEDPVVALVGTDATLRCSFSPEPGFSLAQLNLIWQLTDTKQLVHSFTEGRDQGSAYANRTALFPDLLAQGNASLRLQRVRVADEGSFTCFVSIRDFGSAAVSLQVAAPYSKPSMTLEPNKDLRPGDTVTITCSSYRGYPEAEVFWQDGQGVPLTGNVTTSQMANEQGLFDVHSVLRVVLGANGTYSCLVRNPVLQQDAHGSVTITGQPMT
Description: ELISA, purified VHH. A digest of the protocol:
as §1

The target in the next assay is IgG control. Description: phage ELISA. A digest of the protocol:
(§2)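 Camel VHH phage from libraries of eight individual camels went through 3 rounds of panning on recombinant B7H3-Fc protein. The recorded ELISA signal reflects binding of the selected phage to immobilised human or other-species B7H3, or to control proteins, in a phage ELISA.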

Assay [5] deals with T1, recombinant human B7H3-Fc protein. Description: phage ELISA. An outline of the steps: as §2
Assay [6] deals with Non-relevant antigen. Description: phage ELISA, cross-species. An outline of the steps:
as §2

For a further assay, the target named is T5, mouse B7H3-His (mouse, UniProt Q8VE98 29-244, limits assumed).
T5 construct: also called recombinant mouse B7H3-His protein; not shown: His tag
T5 sequence (looked up): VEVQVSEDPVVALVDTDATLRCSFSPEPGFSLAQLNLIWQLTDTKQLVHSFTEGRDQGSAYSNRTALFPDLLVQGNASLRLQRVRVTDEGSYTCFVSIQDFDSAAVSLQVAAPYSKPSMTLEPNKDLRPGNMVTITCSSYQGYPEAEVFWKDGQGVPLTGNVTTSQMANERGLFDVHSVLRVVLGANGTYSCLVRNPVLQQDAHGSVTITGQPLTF
Description: phage ELISA, cross-species. An outline of the steps:
as §2

Assay [7] concerns the target T2, rat B7H3-His. Description: phage ELISA, cross-species. An outline of the steps:
as §2

In assay [8] the target is T3, monkey B7H3-His. Description: phage ELISA, cross-species. A digest of the protocol:
as §2

In the next assay the target is T6, human B7H3 (human, UniProt Q5ZPR3 29-466, limits assumed).
T6 construct: also called human B7H3 protein
T6 sequence (looked up): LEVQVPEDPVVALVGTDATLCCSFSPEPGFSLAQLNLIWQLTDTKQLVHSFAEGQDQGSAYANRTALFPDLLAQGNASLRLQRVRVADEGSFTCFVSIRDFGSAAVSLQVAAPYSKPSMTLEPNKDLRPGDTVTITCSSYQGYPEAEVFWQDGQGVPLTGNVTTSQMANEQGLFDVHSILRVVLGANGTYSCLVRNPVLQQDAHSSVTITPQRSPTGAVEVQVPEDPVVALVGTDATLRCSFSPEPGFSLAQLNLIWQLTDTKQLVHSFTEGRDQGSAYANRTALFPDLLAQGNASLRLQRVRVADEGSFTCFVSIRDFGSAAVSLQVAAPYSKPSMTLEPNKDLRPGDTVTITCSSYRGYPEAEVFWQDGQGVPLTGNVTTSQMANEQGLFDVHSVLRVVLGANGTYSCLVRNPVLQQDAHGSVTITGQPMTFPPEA
Description: phage ELISA, cross-species. A digest of the protocol:
as §2

For a further assay, the target named is PD-L1. Description: ELISA, purified VHH, cross-reaction.
PD-L1, sequence (Q9NZQ7 whole entry): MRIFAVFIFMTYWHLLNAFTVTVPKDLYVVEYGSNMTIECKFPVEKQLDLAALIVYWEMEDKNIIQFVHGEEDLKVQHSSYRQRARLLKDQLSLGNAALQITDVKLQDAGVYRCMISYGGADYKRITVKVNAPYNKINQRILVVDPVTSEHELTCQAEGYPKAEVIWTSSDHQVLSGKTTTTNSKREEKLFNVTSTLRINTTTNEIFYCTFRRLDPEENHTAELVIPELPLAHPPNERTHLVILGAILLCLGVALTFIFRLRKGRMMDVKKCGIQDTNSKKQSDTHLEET
Assay [9] has as its target T7, B7H3 (CD276) on MC38-CD276+ cells.
T7 construct: whole, on cells; MC38-CD276KO cells served as the negative control; also called MC38-B7H3+
T7 sequence (Q5ZPR3 1-534, species assumed, looked up): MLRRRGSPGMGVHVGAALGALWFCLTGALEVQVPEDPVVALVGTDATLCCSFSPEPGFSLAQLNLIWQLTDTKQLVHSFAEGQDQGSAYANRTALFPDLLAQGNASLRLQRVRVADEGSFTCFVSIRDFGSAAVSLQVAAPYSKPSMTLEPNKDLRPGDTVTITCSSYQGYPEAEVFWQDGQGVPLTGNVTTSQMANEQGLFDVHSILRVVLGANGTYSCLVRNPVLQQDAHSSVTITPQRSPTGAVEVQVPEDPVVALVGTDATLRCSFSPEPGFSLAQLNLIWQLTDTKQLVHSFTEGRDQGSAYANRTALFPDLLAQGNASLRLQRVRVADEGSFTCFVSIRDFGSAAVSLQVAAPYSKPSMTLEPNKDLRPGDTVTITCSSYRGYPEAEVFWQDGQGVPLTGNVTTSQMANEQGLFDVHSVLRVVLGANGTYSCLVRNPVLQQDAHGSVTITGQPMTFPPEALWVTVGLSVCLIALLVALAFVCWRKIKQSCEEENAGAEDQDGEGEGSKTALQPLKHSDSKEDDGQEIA
Description: flow cytometry on MC38-CD276+ cells, VHH at 2 ug/ml.

Assay [10] shares this target. Description: flow cytometry on MC38-CD276+ cells, VHH at 0.5 ug/ml. (In flow cytometry, cells or beads pass a laser one at a time.)
Assay [11] shares this target. Description: flow cytometry on MC38-CD276+ cells, VHH at 10 ug/ml.
Assay [12] has the same target. Description: flow cytometry on MC38-CD276+ cells, VHH at 50 ug/ml.

B1: RWH1 (VHH)
VHH: AVQLVESGGGSVQAGGSLRLSCAASGMNLDNYVRGWLRQAPGSKCEFVSIIRRDGTTDYGDSVKGRFTISRDNAKNTVYLQMNSLKPDDTAVYYCAAIVVPRAAEYACDGLPYRGQGTQVTVSS
notes: Camel VHH; tag not described; also called camel antibody RWH1
On to B1, for which the ELISA signal in [1] amounted to 2.59; in the assay with Non-relevant antigen [2] it was 0.131; with rat B7H3-His [3], 0.134; in the assay with monkey B7H3-His [4] it was 1.3; with hB7H3-His, 2.65; with IgG control, 0.136. The ELISA signal in assay [5] turned out to be 2.75; with Non-relevant antigen [6] it was 0.0608; with mouse B7H3-His, 0.0738; with rat B7H3-His [7], 0.0951; in the assay with monkey B7H3-His [8] it was 0.0706; with human B7H3, 2.03. The molecule further showed an ELISA signal with PD-L1 of 0.0753.

B2: RWC3 (VHH)
VHH: QVQLVESGGGLVQPGGSLSVSCAASGFTFSVYWFYWVRQAPRQGLEWVSTIASNGSTYYSDSVKGRFTISRDNAKNTVYLQMNSLKPEDTAVYYCVSDPDYYSDYERAYKFWAQGTQVTVSS
notes: Camel VHH; tag not described; also called camel antibody RWC3
With B2, the ELISA signal was 2.34 in assay [1]; 0.0888 with IgG control; 2.42 in assay [5]; 0.0654 with Non-relevant antigen [6]; 0.0759 with mouse B7H3-His; 0.738 with rat B7H3-His [7]. The ELISA signal was found to be 0.228 with monkey B7H3-His [8], 2.14 in the assay with human B7H3 and 0.0454 in the assay with PD-L1.

B3: RWD5 (VHH)
VHH: AVQLVESGGGLVQPGGSLSVSCAASGFTFSVYWFYWVRQAPRQGLEWVSTIASNGSTYYSDSVKGRFTISRDNAKNTVYLQMNSLKPEDTAVYYCVSDPDYYSDYEREYKFWAQGTQVTVSS
notes: Camel VHH; tag not described; also called RWDS [sic]; camel antibody RWD5
B3: the ELISA signal in [1] stood at 2.37; with IgG control, 0.0685; in assay [5], 2.5; in the assay with Non-relevant antigen [6], 0.0583; with mouse B7H3-His, 0.0819; with rat B7H3-His [7], 0.871. Besides, the ELISA signal with monkey B7H3-His [8] stood at 0.267; with human B7H3 it was 2.13; with PD-L1, 0.0471. Further, the Positive rates in [9] was found to be 1.44%; in assay [10], 0.19%; in assay [11] it was 44.9%; in [12] it was 88.9%.

B4: RWD9 (VHH)
VHH: EVQLVESGGGLVQPGGSLSVSCAASGFTFSVYWFYWVRQAPRQGLEWVSTIASNGSTYYSDSVKGRFTISRDNAKNTVYLQMNSLKPEDTAVYYCVSDPDYYSDYERAYKFWAQGTQVTVSS
notes: Camel VHH; tag not described; also called camel antibody RWD9
In the case of B4, the ELISA signal in [1] is 0.499; with IgG control, 0.0788; in assay [5], 2.43; with Non-relevant antigen [6] it was 0.113; with mouse B7H3-His, 0.0782; with rat B7H3-His [7], 0.778. In addition, the ELISA signal with monkey B7H3-His [8] was 0.237; in the assay with human B7H3, 2.21; in the assay with PD-L1, 0.0438.

B5: RWH5 (VHH)
VHH: AVQLVESGGGSVQAGGSLRLSCKASGYCMGWFRQAPGKEREGVAALNTEGGVTYYADSVKGRFSISRDNTNLYLQMNSLKPEDTAIYYCAADDRPTRCAVGSLYLPYTYRGQGTQVTVSS
notes: Camel VHH; tag not described; also called RWHS [sic]; camel antibody RWH5
B5: the results for the ELISA signal in the assay with monkey B7H3-His [4] and with monkey B7H3-His [8] were 0.0979 and 2.22, respectively.
